Experimental data published in US20200024330A1.

Assays:
Test in all cases: cell-based or functional assay
[1] = target: HIV-1 Env of isolate MGRM-G-013 (subtype G) (HIV-1)
[2] = target: HIV-1 Env of isolate MGRM-G-015 (subtype G) (HIV-1)
[3] = target: HIV-1 APV_17 Env (pseudovirus) (HIV-1)
[4] = target: HIV-1 Env of isolate MG RM-D-021 (subtype D) (HIV-1)
[5] = target: HIV-1 Env of isolate MG RM-D-024 (subtype D) (HIV-1)
[6] = target: HIV-1 Env of isolate MGRM-C-004 (pseudovirus) (HIV-1 isolate MGRM-C-004, subtype C)
[7] = target: HIV-1 Env of isolate MGRM-C-019 (pseudovirus) (HIV-1 isolate MGRM-C-019, subtype C)
[8] = target: HIV-1 Env of isolate MGRM-C-025 (pseudovirus) (HIV-1 isolate MGRM-C-025, subtype C)
[9] = target: HIV-1 Env of isolate MGRM-F1-004 (subtype F) (HIV-1)
[10] = target: HIV-1 Env of isolate MGRM-F1-008 (subtype F) (HIV-1)
[11] = target: HIV-1 Env of isolate MGRM-F1-014 (HIV-1)
[12] = target: HIV-1 Env of isolate MGRM-F1-021 (HIV-1)
[13] = target: HIV-1 Env of isolate MGRM-G-024 (HIV-1)
[14] = target: HIV-1 JR-CSF Env D113A (HIV-1 (isolate JR-CSF)) (UniProt P20871)
[15] = target: HIV-1 MGRM-Chronic-B-001 Env (pseudovirus) (HIV-1)
[16] = target: HIV-1 MGRM-Chronic-B-003 Env (pseudovirus) (HIV-1)
[17] = target: HIV-1 NL43 Env (pseudovirus) (HIV-1)
[18] = target: HIV-1 QH0692.42 Env (pseudovirus) (HIV-1)
[19] = target: HIV-1 TRO.11 Env (pseudovirus) (HIV-1)
[20] = target: HIV-1 Env of isolate MGRM-D-018 (HIV-1)
[21] = target: HIV-1 Env of isolate THR0.18 (HIV-1)
[22] = target: HIV-1 Env of isolate TRJ04551.58 (HIV-1)
[23] = target: HIV-1 Env of isolate MGRM-A-013 (clade A), on pseudovirus (HIV-1)
[24] = target: HIV-1 Env of isolate MGRM-AG-006 (CRF_AG), on pseudovirus (HIV-1)
[25] = target: HIV-1 Env of isolate MGRM-C-006 (HIV-1)
[26] = target: HIV-1 Env of isolate MGRM-C-009 (HIV-1)
[27] = target: HIV-1 Env of isolate MGRM-C-015 (HIV-1)
[28] = target: HIV-1 Env of isolate MGRM-C-020 (HIV-1)
[29] = target: HIV-1 Env of isolate MGRM-F1-004 (subtype F), on pseudovirus (HIV-1)
[30] = target: HIV-1 Env of isolate MGRM-F1-016 (subtype F), on pseudovirus (HIV-1)
[31] = target: HIV-1 Env of isolate MGRM-D-008 (clade D) (HIV-1)
[32] = target: HIV-1 Env of isolate MGRM-D-013 (clade D) (HIV-1)
[33] = target: HIV-1 Env of pseudovirus CAAN.A2 (Acute), clade B (HIV-1)
[34] = target: HIV-1 MGRM-C-005 Env (HIV-1)
[35] = target: HIV-1 MGRM-C-023 Env (HIV-1)
[36] = target: HIV-1 MGRM-C-024 Env (HIV-1)
[37] = target: HIV-1 MGRM-F1-014 Env (pseudovirus) (HIV-1)
[38] = target: HIV-1 MGRM-F1-020 Env (pseudovirus) (HIV-1)
[39] = target: HIV-1 VLGCA1 envelope glycoprotein (Env) on pseudovirus (HIV-1)

Chain of 5329_C19 (PGT-136) (antibody) (VH): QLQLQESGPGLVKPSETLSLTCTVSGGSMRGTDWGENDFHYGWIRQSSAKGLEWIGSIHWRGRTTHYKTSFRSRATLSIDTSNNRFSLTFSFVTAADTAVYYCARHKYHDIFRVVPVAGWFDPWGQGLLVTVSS
Chain of 5329_C19 (PGT-136) (antibody) (VL): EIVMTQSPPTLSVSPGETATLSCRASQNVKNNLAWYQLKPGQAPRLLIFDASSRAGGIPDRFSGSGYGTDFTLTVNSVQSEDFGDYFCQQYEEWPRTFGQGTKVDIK
Chain of 5345_I01 (PGT-137) (antibody) (VH): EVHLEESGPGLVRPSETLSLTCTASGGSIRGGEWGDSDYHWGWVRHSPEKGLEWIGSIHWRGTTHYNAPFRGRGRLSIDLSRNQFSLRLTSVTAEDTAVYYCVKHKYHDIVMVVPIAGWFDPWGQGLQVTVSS
Chain of 5345_I01 (PGT-137) (antibody) (VL): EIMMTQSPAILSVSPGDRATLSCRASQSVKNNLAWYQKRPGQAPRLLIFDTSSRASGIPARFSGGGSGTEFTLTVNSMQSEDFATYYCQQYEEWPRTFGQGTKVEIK
Chain of PGT-142 (4995_E20) (antibody) (VH): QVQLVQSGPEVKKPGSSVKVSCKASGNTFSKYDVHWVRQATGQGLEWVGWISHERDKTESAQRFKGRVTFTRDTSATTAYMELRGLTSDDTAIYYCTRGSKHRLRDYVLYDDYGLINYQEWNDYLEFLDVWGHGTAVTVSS
Chain of PGT-142 (4995_E20) (antibody) (VL): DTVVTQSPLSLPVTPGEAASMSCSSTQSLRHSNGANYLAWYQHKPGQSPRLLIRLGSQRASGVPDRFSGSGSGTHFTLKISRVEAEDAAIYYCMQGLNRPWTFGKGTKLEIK
Chain of PGT-144 (4970_K22) (antibody) (VH): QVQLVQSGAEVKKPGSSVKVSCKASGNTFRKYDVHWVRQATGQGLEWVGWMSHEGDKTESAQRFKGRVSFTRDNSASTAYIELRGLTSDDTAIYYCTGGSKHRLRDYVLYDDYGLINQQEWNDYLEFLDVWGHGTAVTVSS
Chain of PGT-144 (4970_K22) (antibody) (VL): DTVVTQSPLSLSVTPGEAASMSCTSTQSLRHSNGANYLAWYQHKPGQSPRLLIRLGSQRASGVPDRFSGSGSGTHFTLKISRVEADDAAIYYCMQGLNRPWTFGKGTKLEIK
Chain of PGT-143 (4980_N08) (antibody) (VH): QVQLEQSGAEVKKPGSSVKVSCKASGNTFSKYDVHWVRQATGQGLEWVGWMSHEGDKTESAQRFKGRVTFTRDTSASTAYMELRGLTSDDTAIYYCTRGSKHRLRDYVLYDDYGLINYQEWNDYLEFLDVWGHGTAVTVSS
Chain of PGT-143 (4980_N08) (antibody) (VL): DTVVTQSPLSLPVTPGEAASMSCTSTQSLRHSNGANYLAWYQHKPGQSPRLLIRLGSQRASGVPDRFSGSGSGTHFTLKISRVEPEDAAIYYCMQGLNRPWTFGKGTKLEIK
Chain of PGT-141 (4964_G22; 4993_K13) (antibody) (VH): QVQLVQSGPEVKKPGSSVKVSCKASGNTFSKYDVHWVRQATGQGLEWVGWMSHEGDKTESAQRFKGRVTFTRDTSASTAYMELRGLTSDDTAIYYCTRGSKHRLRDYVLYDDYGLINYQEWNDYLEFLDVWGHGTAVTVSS

| Substance | neutralization IC50 [1] [µg/mL] | neutralization IC50 [2] [µg/mL] | IC50, pseudovirus neutralization [3] [µg/mL] | IC50 (µg/mL), pseudovirus neutralization [4] [µg/mL] | IC50 (µg/mL), pseudovirus neutralization [5] [µg/mL] | IC50 (µg/mL) neutralization [6] [µg/mL] | IC50 (µg/mL) neutralization [7] [µg/mL] | IC50 (µg/mL) neutralization [8] [µg/mL] | IC50 (µg/mL), pseudovirus neutralization [9] [µg/mL] | IC50 (µg/mL), pseudovirus neutralization [10] [µg/mL] | IC50 [12] [µg/mL] | IC50, pseudovirus neutralization [13] [µg/mL] | Fold IC50 increase relative to wild-type [14] [fold] | IC50, pseudovirus neutralization [15] [µg/mL] | IC50, pseudovirus neutralization [16] [µg/mL] | IC50, pseudovirus neutralization [17] [µg/mL] | IC50, pseudovirus neutralization [18] [µg/mL] | IC50, pseudovirus neutralization [19] [µg/mL] | further results |
| --- | --- | --- | --- | --- | --- | --- | --- | --- | --- | --- | --- | --- | --- | --- | --- | --- | --- | --- | --- |
| PGT-143 (4980_N08) (antibody) | > 50 | > 50 | – | – | – | – | – | – | – | – | – | – | – | – | – | – | – | – | – |
| 5145_B14 (PGT-127) (antibody) | – | – | 10.4 | 0.056 | 1.95 | 0.532 | 0.017 | > 50 | 0.068 | > 50 | > 50 | > 50 | 0.3 | > 50 | 0.12 | > 50 | 0.129 | 0.079 | IC50 [11]: > 50 µg/mL |
| VRC01 (antibody) | 0.553 | 0.548 | – | – | – | – | – | – | – | – | – | – | – | – | – | – | – | – | IC50, pseudovirus neutralization [20]: > 50 µg/mL; IC50, pseudovirus neutralization [11]: 0.056 µg/mL; IC50, pseudovirus neutralization [12]: 0.039 µg/mL; neutralization IC50 [21]: 2.46 µg/mL; neutralization IC50 [22]: 0.06 µg/mL |
| PGV04 (antibody) | 0.168 | 0.333 | – | – | – | – | – | – | – | – | – | – | – | – | – | – | – | – | IC50 (µg/mL), pseudovirus neutralization [20]: 17.5 µg/mL; IC50 (µg/mL), pseudovirus neutralization [11]: 0.02 µg/mL |
| 5114_A19 (PGT-128) (antibody) | – | – | – | – | – | – | – | – | – | – | – | 0.095 | 0.5 | – | – | – | – | – | IC50, single-round pseudovirus neutralization [23]: 0.008 µg/mL; IC50, single-round pseudovirus neutralization [24]: 0.009 µg/mL; IC50 [25]: 0.014 µg/mL; IC50 [26]: > 50 µg/mL; IC50 [27]: 0.196 µg/mL; IC50 [28]: 5.85 µg/mL; IC50 [20]: 0.008 µg/mL; IC50, pseudovirus neutralization [29]: 0.027 µg/mL; IC50, pseudovirus neutralization [30]: 1.21 µg/mL; IC50 [21]: > 50 µg/mL; IC50 [22]: 0.019 µg/mL |
| 5136_H01 (PGT-131) (antibody) | – | – | – | – | – | – | – | – | – | – | – | 10.7 | – | – | – | – | – | – | IC50, single-round pseudovirus neutralization [23]: > 50 µg/mL; IC50, single-round pseudovirus neutralization [24]: 0.019 µg/mL; IC50 [25]: 0.611 µg/mL; IC50 [26]: > 50 µg/mL; IC50 [27]: 1.01 µg/mL; IC50 [28]: > 50 µg/mL; IC50 [20]: 0.148 µg/mL; IC50, pseudovirus neutralization [29]: 0.114 µg/mL; IC50, pseudovirus neutralization [30]: > 50 µg/mL; IC50 [21]: > 50 µg/mL; IC50 [22]: 0.088 µg/mL |
| PGT-144 (4970_K22) (antibody) | > 50 | > 50 | – | – | – | – | – | – | – | – | – | – | – | – | – | – | – | – | – |
| 1496_C09 (PG9) (TCN-109) (antibody) | – | 6.6 | – | – | – | – | – | – | – | – | – | – | – | – | – | – | – | – | IC50 (µg/ml), pseudovirus neutralization [31]: 6.86 µg/mL; IC50 (µg/ml), pseudovirus neutralization [32]: 0.06 µg/mL; IC50 (µg/ml), pseudovirus neutralization [33]: 5.67 µg/mL; IC50 [34]: 2.98 µg/mL; IC50 [35]: 0.51 µg/mL; IC50 [36]: 0.22 µg/mL; IC50 (µg/ml), pseudovirus neutralization [37]: 0.01 µg/mL; IC50 (µg/ml), pseudovirus neutralization [38]: 4.55 µg/mL; IC50 (µg/ml), pseudovirus neutralization [39]: 0.07 µg/mL |
| 4858_P08 (PGT-123) (antibody) | – | – | 0.114 | 11.1 | 0.023 | 0.009 | > 50 | 13.3 | 1.78 | > 50 | 0.307 | 0.032 | 1.1 | 0.15 | 0.008 | > 50 | 0.158 | 0.008 | IC50 [11]: 0.111 µg/mL |
| 5343_B08 (PGT-135) (antibody) | – | – | – | – | – | – | – | – | – | – | – | 0.062 | 0.8 | – | – | – | – | – | IC50, single-round pseudovirus neutralization [23]: > 50 µg/mL; IC50, single-round pseudovirus neutralization [24]: 17.9 µg/mL; IC50 [25]: > 50 µg/mL; IC50 [26]: > 50 µg/mL; IC50 [27]: 0.104 µg/mL; IC50 [28]: > 50 µg/mL; IC50 [20]: 0.039 µg/mL; IC50, pseudovirus neutralization [29]: 0.211 µg/mL; IC50, pseudovirus neutralization [30]: > 50 µg/mL; IC50 [21]: > 50 µg/mL; IC50 [22]: > 50 µg/mL |
| 4838_L06 (PGT-121) (antibody) | – | – | 0.066 | 5.33 | 0.038 | 0.011 | > 50 | 46.8 | 1.67 | > 50 | 0.099 | – | – | 0.102 | 0.011 | > 50 | 0.823 | 0.008 | – |
| 5329_C19 (PGT-136) (antibody) | – | – | – | – | – | – | – | – | – | – | – | 0.152 | – | – | – | – | – | – | IC50, single-round pseudovirus neutralization [23]: > 50 µg/mL; IC50, single-round pseudovirus neutralization [24]: 29.1 µg/mL; IC50 [25]: > 50 µg/mL; IC50 [26]: > 50 µg/mL; IC50 [27]: 11.1 µg/mL; IC50 [28]: > 50 µg/mL; IC50 [20]: > 50 µg/mL; IC50, pseudovirus neutralization [29]: > 50 µg/mL; IC50, pseudovirus neutralization [30]: > 50 µg/mL; IC50 [21]: > 50 µg/mL; IC50 [22]: > 50 µg/mL |
| PGT-142 (4995_E20) (antibody) | > 50 | > 50 | – | – | – | – | – | – | – | – | – | – | – | – | – | – | – | – | – |
| 5141_B17 (PGT-126) (antibody) | – | – | 0.353 | 0.047 | 0.376 | 0.033 | 0.005 | 0.786 | 0.063 | > 50 | > 50 | > 50 | 1.2 | > 50 | 0.041 | > 50 | 0.048 | 0.041 | IC50 [11]: > 50 µg/mL; IC50 [17]: > 10 µg/mL; IC80 [17]: > 10 µg/mL; IC90 [17]: > 10 µg/mL; IC95 [17]: > 10 µg/mL |
| PGT-141 (4964_G22; 4993_K13) (antibody) | > 50 | > 50 | – | – | – | – | – | – | – | – | – | – | – | – | – | – | – | – | – |
| 5345_I01 (PGT-137) (antibody) | – | – | – | – | – | – | – | – | – | – | – | 0.051 | – | – | – | – | – | – | IC50, single-round pseudovirus neutralization [23]: 49.2 µg/mL; IC50, single-round pseudovirus neutralization [24]: 28.3 µg/mL; IC50 [25]: > 50 µg/mL; IC50 [26]: > 50 µg/mL; IC50 [27]: 1.98 µg/mL; IC50 [28]: > 50 µg/mL; IC50 [20]: 15.1 µg/mL; IC50, pseudovirus neutralization [29]: 40.3 µg/mL; IC50, pseudovirus neutralization [30]: > 50 µg/mL; IC50 [21]: > 50 µg/mL; IC50 [22]: > 50 µg/mL |
| 4877_D15 (PGT-122) (antibody) | – | – | 0.25 | 11.7 | 0.185 | 0.02 | > 50 | 8.69 | 1.29 | > 50 | 2.3 | 0.033 | – | 0.138 | 0.008 | > 50 | 0.493 | 0.011 | IC50 [11]: 0.195 µg/mL |
| 5123_A06 (PGT-125) (antibody) | – | – | 8.06 | 0.015 | > 50 | 1.82 | 0.13 | 42.5 | > 50 | 0.361 | > 50 | > 50 | 1.1 | > 50 | 0.157 | > 50 | 0.048 | 0.111 | IC50 [11]: > 50 µg/mL |
